Test results taken from patent US20250276075A1, “METHODS OF TREATING AXL-EXPRESSING CANCERS WITH ANTI-AXL ANTIBODIES, ANTIBODY FRAGMENTS AND THEIR IMMUNOCONJUGATES” (BIOATLA, INC., priority 2020, published 2025).
Residue numbers refer to the chain shown, from its start. Numbers in names are those of the source.

Legend:
Axl [1] = molecular target: Axl (UniProt P30530); assay: ELISA, 1:3 dilution
Axl [2] = molecular target: T1, Axl (Homo sapiens, UniProt P30530); assay: Affinity ELISA of CPE mutant antibodies for binding to Axl at pH 6.0 over pH 7.4; details: heavy chain variable region mutants; for Affinity ELISA CPE mutant ratio (1:3, pH 6.0/7.4): 1:3 dilution; for Affinity ELISA CPE mutant ratio (1:9, pH 6.0/7.4): 1:9 dilution
T1 sequence (P30530 26-451 limits assumed): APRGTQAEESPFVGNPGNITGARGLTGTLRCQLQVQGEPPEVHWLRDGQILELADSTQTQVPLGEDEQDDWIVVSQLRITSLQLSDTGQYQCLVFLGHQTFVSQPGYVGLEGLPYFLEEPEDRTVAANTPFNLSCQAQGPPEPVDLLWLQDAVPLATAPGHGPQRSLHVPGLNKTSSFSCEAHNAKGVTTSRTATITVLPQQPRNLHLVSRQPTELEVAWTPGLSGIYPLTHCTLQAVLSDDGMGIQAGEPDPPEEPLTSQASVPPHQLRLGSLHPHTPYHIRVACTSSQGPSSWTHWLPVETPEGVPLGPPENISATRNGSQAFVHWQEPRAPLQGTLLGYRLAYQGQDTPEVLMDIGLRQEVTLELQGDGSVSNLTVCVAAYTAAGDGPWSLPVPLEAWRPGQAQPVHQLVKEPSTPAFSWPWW
In short: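 Single-point mutant anti-Axl antibody library (CPE) screened by ELISA for binding at pH 6.0 versus pH 7.4, at 1:3 and 1:9 antibody dilutions, in serum with FLAG-tag detection and carbonate (Krebs-Ringer) buffer. Selection criterion: pH 6.0/pH 7.4 binding ratio ≥1.5 at either dilution.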

Axl [3] = molecular target: Axl (UniProt P30530); assay: ELISA, 1:9 dilution

B1: HC-S103M (antibody, V domains shown)
VH: EVQLVQSGAEVKKPGATVKISCKVSGYSFTGHTMNWIRQPPGKGLEWIGLIKPSNGGTSYNQKFKGRVTISADKSISTAYLQWSSLKASDTAMYYCAHGHYEMYFAMDYWGQGTLVTVSS
VL: DIQMTQSPSSLSASVGDRVTITCKASQDVSSAVAWYQQKPGQAPRLLIYWASTRHTGVPSRFSGSGSGTEFTLTISSLQPDDFATYYCQEHFSTPLTFGQGTKVEIK
B1 was tested, and the Affinity ELISA CPE mutant ratio (1:3, pH 6.0/7.4) (Axl [1]) was 1.78, the “Affinity ELISA CPE mutant ratio (1:3, pH 6.0/7.4)” value (Axl [2]) was 1.784 and the “Affinity ELISA CPE mutant ratio (1:9, pH 6.0/7.4)” value (Axl [2]) was 1.806. The Affinity ELISA CPE mutant ratio (1:9, pH 6.0/7.4) (Axl [3]) was 1.81.

B2: HC-H100E (antibody, V domains shown)
VH: B1 VH with H100E, M103S
VL: B1 VL
B2 was tested, and the Affinity ELISA CPE mutant ratio (1:3, pH 6.0/7.4) (Axl [1]) was 2.77, the “Affinity ELISA CPE mutant ratio (1:3, pH 6.0/7.4)” value (Axl [2]) was 2.775 and the “Affinity ELISA CPE mutant ratio (1:9, pH 6.0/7.4)” value (Axl [2]) was 3.623. The Affinity ELISA CPE mutant ratio (1:9, pH 6.0/7.4) (Axl [3]) was 3.62.

B3: HC-S103N (antibody, V domains shown)
VH: B1 VH with M103N
VL: B1 VL
For B3, the Affinity ELISA CPE mutant ratio (1:3, pH 6.0/7.4) (Axl [1]) was 1.07, the “Affinity ELISA CPE mutant ratio (1:3, pH 6.0/7.4)” value (Axl [2]) was 1.075 and the “Affinity ELISA CPE mutant ratio (1:9, pH 6.0/7.4)” value (Axl [2]) was 3.179. For the same molecule, the Affinity ELISA CPE mutant ratio (1:9, pH 6.0/7.4) (Axl [3]) was 3.18.

B4: HC-H100W (antibody, V domains shown)
VH: B1 VH with H100W, M103S
VL: B1 VL
With B4 the Affinity ELISA CPE mutant ratio (1:3, pH 6.0/7.4) (Axl [1]) was 4.94, the “Affinity ELISA CPE mutant ratio (1:3, pH 6.0/7.4)” value (Axl [2]) was 4.937 and the “Affinity ELISA CPE mutant ratio (1:9, pH 6.0/7.4)” value (Axl [2]) was 5.908. It also gave an Affinity ELISA CPE mutant ratio (1:9, pH 6.0/7.4) (Axl [3]) of 5.91.

B5: HC-S103Q (antibody, V domains shown)
VH: B1 VH with M103Q
VL: B1 VL
B5 was tested, and the Affinity ELISA CPE mutant ratio (1:3, pH 6.0/7.4) (Axl [1]) was 0.912, the “Affinity ELISA CPE mutant ratio (1:3, pH 6.0/7.4)” value (Axl [2]) was 0.912 and the “Affinity ELISA CPE mutant ratio (1:9, pH 6.0/7.4)” value (Axl [2]) was 2.256. For the same molecule, the Affinity ELISA CPE mutant ratio (1:9, pH 6.0/7.4) (Axl [3]) was 2.26.

B6: HC-H100P (antibody, V domains shown)
VH: B1 VH with H100P, M103S
VL: B1 VL
B6 was tested, and the Affinity ELISA CPE mutant ratio (1:3, pH 6.0/7.4) (Axl [1]) was 2.58, the “Affinity ELISA CPE mutant ratio (1:3, pH 6.0/7.4)” value (Axl [2]) was 2.575 and the “Affinity ELISA CPE mutant ratio (1:9, pH 6.0/7.4)” value (Axl [2]) was 1.179. The Affinity ELISA CPE mutant ratio (1:9, pH 6.0/7.4) (Axl [3]) was 1.18.

B7: HC-Y104C (antibody, V domains shown)
VH: B1 VH with M103S, Y104C
VL: B1 VL
For B7, the Affinity ELISA CPE mutant ratio (1:3, pH 6.0/7.4) (Axl [1]) was 1.84, the “Affinity ELISA CPE mutant ratio (1:3, pH 6.0/7.4)” value (Axl [2]) was 1.845 and the “Affinity ELISA CPE mutant ratio (1:9, pH 6.0/7.4)” value (Axl [2]) was 1.741. It also gave an Affinity ELISA CPE mutant ratio (1:9, pH 6.0/7.4) (Axl [3]) of 1.74.

B8: HC-Y101N (antibody, V domains shown)
VH: B1 VH with Y101N, M103S
VL: B1 VL
B8 was tested, and the Affinity ELISA CPE mutant ratio (1:3, pH 6.0/7.4) (Axl [1]) was 2.17, the “Affinity ELISA CPE mutant ratio (1:3, pH 6.0/7.4)” value (Axl [2]) was 2.174 and the “Affinity ELISA CPE mutant ratio (1:9, pH 6.0/7.4)” value (Axl [2]) was 2.907. For the same molecule, the Affinity ELISA CPE mutant ratio (1:9, pH 6.0/7.4) (Axl [3]) was 2.91.

B9: HC-Y104E (antibody, V domains shown)
VH: B1 VH with M103S, Y104E
VL: B1 VL
For B9, the Affinity ELISA CPE mutant ratio (1:3, pH 6.0/7.4) (Axl [1]) was 1.32, the “Affinity ELISA CPE mutant ratio (1:3, pH 6.0/7.4)” value (Axl [2]) was 1.321 and the “Affinity ELISA CPE mutant ratio (1:9, pH 6.0/7.4)” value (Axl [2]) was 1.796. For the same molecule, the Affinity ELISA CPE mutant ratio (1:9, pH 6.0/7.4) (Axl [3]) was 1.8.

B10: HC-E102F (antibody, V domains shown)
VH: B1 VH with E102F, M103S
VL: B1 VL
In the case of B10, the Affinity ELISA CPE mutant ratio (1:3, pH 6.0/7.4) (Axl [1]) is reported as 1.88, the “Affinity ELISA CPE mutant ratio (1:3, pH 6.0/7.4)” value (Axl [2]) is reported as 1.879 and the “Affinity ELISA CPE mutant ratio (1:9, pH 6.0/7.4)” value (Axl [2]) is reported as 1.363. For the same molecule, the Affinity ELISA CPE mutant ratio (1:9, pH 6.0/7.4) (Axl [3]) was 1.36.
